Measurements reported in the DeepSol protein solubility set.

Assay: soluble on expression in E. coli; label from the status in PepcDB or PDB records

Sequence | soluble on expression in E. coli
MYNGIGLQTARGSGTNGYVQSNLSHLMQARRKIEYNGEDDLRKMEAELNRKPNEEIMDHNRKRQIEVKCTEFEMLLEDKGLDDEDIERKVGEYRKNLLKQLESGELNVDEELSTKESHARRRAAANNRDKMRNALGLGEDYVPGSSMAKMNKSDVVGAAMESELPQKDDKEKLLETLRLHRKSKKKQESSSSSSSSSSSSESSSEDEKHRKDRKKKEKKQKLKEMEKRREKLRQKERELLAVSDKVKKEEPAESSDEEDSRKDQRKPREDRRRSVERQDQREDRRDRRRSPEDPRERRRSPEDRTVRRRSPERRRQQRSPSVERRKSPQRRDERRRRHDSSENERRSTATASKKSRMDELEVKQEPPSDSEDYIAKTNLAPIRVEKSAEKVEKSRKSSSESSSGSSDSDSSSDSSSSSDSSSDSE | not soluble
SISKEEILKPIWYAFTALDLDRNGKVSKSQLKVLSHNLCTILKIPHNTSALEEHFKDDDEGPVSTQGYMPYLNTFILSKIQPNFDFVELNKMCWTLSAPKHINTMNLLMSEKDAFRVWCIFNFLSEDKYPLTIVTEELEYFLRKLLTAMGCSWNEGRFEDYKMHLNAKTWKHKVSKHEGLLKLVQPGGKTPSKMTNWGQAAFTESELNELEKMWQVNKNRSEEE | soluble
MSLLLRMMGWKALVPSANPLQSVICVAPHTSNYDFLLGKLYYWSIGRKAGFLMKKEWFFFPLGPIFRAMGGIPIDRSKRGSTVEQVREFFQRHAVFNVAITPEGTRDYSPQWKTGFYRIAVGAGVPIQLAVIDYSYKEMSVFELFTPTGNEEADIAYIRSRYRASQARHPRNFAESEIEGHHHHHH | soluble
MGSDKIHHHHHHMLKIGKRNPNKPLVIENDQVVSLYFDARGVQSTMLRHDPYALALGYTRTMMGFLLFRPSPCRISMIGLGGGSLAKYCYRHLPDTAITAIEINPDVIALRDHFHVPRDDGRFTVVCADGAQYVAVPGHRPDVLLVDGFNADGLPARLGSSAFYEACRRRLSDDGVLVANLVTDEPDFHRYLRALWEVFAGAVALAPSEGSEHNVTVFAWKGAGGLPSFAAMLDRARALQARHAVNLHATATRIEYGKKFNWSRYGRTA | not soluble
MGHHHHHHSHMYKGRTVLQKVVGHPSCTFLYGPPDPAVRATDPQQVAFPSPAELPDQKQLRYTEELLRHVAPGLHLELRGPQLWARRMGKCKVYWEVGGPPGSASPSTPACLLPRNCDTPIFDFRVFFQELVEFRARQRRGSPRYTIYLGFGQDLSAGRPKEKSLVLVKLEPWLCRVHLEGTQREGVSSLDSSSLSLCLSSANSLYDDIECFLMELEQPA | not soluble
MGSDKIHHHHHHMSIIMERQRGNQLLRIISEYMTNLKEKGQKLAKDNTMENLVNFTPRYNLIKSYLDDVERALDRSGLCYVKITFITLSKLLTGWSPIYFITEVPLAWDMILDTPYIAGSEIKGIVKNYFKEVTSNDKVESCLYGDEGKMGKVIFFNAYPIDGKNVLTYDIITPHYNGAKDEYNVKPIPIKFLAINKGITFKTYLAFDNKELNECGKDSLYLLLKTMIFSMRIGWGRKVTRGYGSLDIKEMDVKCHGE | not soluble
NQNQTQHKQRPQATAEQIRLAQMISDHNDADFEEKVKQLIDITGKNQDECVIALHDCNGDVNRAINVLLEGNPDTHSWEMVGKKKGVSGQK | soluble
MNNIRQLTKDEYPKAIELSWQVFTITGKEDFNNEGLEFFKSFIYNKKCINEIIFYGSFDNEALTGILGIKSNGKHISLFFIKPEYHRHGLGKKLFHYASTLHPSIETTVNSSTYAIPFYRSLGFAVVGEKQNYHGLCSTPMRRYHAVFVQKNKYTLRTWQTEDAHSLVQELNNKKIWDNCRNVFPHPYRLEHAETFIDLIQKKEGIHDFCIEVNGKAVGNIGFTPGTDVECFNAEVGYVIGEKYWNQGIVTDALQEAIYHYFTYTNTIRIFALVFEHNLPSMRVLEKAGFNKVGIMTKSIFKNGHFTNAHLFELLKNVLEHHHHHH | not soluble
MGSDKIHHHHHHMSVVNKIIGVCRFSYLGLGGFRINEAGAEEAAKALYAADRMTLRFAYFETICLPSLAAQTDSDFTFVALIADTMPLPFRQRLKRLTETYPFLRIAVLESTGPYNSTRRAFSRGLDGQETDFITGFRLDDDDAVSVDYIARTREAADTLITLGWATKDDPAAVCFHRGIYWDMKRPDAPFWDYSEIQPLGLASAMVHHRDSRQNIYRWNHRKLASKVRCWTDPSDVMFLRTLHDHNDSGRVMPRDAEQIPDEQARRLLKDRFGLNPKRLLSTMDRVHGGTDAARQWAAETREDPFGKDGDA | not soluble
